# Read-outs that look alike come from different tables or passages of the source.
# Key:
# Plasma stability, rat = format: in vitro ADME; settings: 500 nM, 37 °C, 2 h
# Experimental: (§1) Whole blood and plasma stability were determined for EC2629 and EC2491 at a concentration of 500 nM. Samples were extracted and analyzed using fit-for-purpose bioanalytical methods. EC2629 or EC2491 was spiked into 1 mL whole blood or plasma maintained at 37 °C for 30 min prior to use . Fifty µl aliquots were then removed at defined timepoints and stored in a 1.2 mL extraction plate prior to analysis. Samples were then extracted using protein precipitation with a 3:1 ratio of acetonitrile after addition of internal standard. The supernatant was then transferred to a new plate, evaporated, and reconstituted prior to LC–MS/MS analysis.
# Plasma stability, human = format: in vitro ADME; settings: 500 nM, 37 °C, 2 h
# Experimental: as §1
# [1] = Plasma protein binding (ultrafiltration), human; format: in vitro ADME; settings: 37 °C
# Experimental: Plasma ultrafiltration was used for determination of free and protein bound fractions of EC2629 and EC2491. Samples were extracted and analyzed using fit-for-purpose bioanalytical methods. Briefly, 500 nM EC2629 or EC2491 was spiked into plasma maintained at 37 °C prior to plasma ultrafiltration. Plasma spiked with 500 nM EC2629 or EC2491 was allowed to equilibrate at 37 °C for 30 min prior to processing. Next, 50 μL of plasma was transferred to a clean 1.2 mL plate stored at 2–8 °C for further processing. The remaining plasma sample volumes were transferred to 30 Kd MWCO PES filter to generate plasma ultrafiltrate by centrifugation at 10,000×g for 20 min. After which, 50 μL of each plasma ultrafiltrate was transferred to separate wells in a clean 1.2 mL plate. To all spiked plasma samples, 50 μL of blank plasma ultrafiltrate was added. 50 μL of blank plasma was added to all experimental ultrafiltrate samples. These blank matrix additions normalized the matrix effects for protein binding determination. Samples were then extracted using protein precipitation with a 3:1 ratio of acetonitrile after addition of internal standard. The supernatant transferred to a new plate, evaporated, and reconstituted prior to LC–MS/MS analysis.
# [2] = Plasma pharmacokinetics after intravenous EC2629 in rats; format: in vivo; settings: rat
# Experimental: The plasma pharmacokinetics of EC2629 and metabolite EC2491 were evaluated following intravenous administration of EC2629 to male and female rats. The toxicokinetic phase of the study consisted of 5 groups with three animals/gender assigned to the control group, and nine animals/gender assigned to each of the treatment groups. […] Blood samples were collected from Group 0 at 10 min post-dose, and from Groups 1–4 at pre-dose, 2, 10, and 30 min and 1, 2, 8, 12, and 24 h post-dose. Plasma was prepared and analyzed for concentrations of EC2629 and metabolite EC2491. Mean plasma EC2629 and EC2491 concentration–time data for males and females, separately, of Groups 1–4 and were subjected to noncompartmental toxicokinetic evaluations and the results are summarized in Table S3.
# [3] = 0.1 mg/kg, 0.10 mg/kg iv, female, Group 2
# [4] = 0.1 mg/kg, 0.10 mg/kg iv, male, Group 2
# [5] = 0.5 mg/kg, 0.50 mg/kg iv, female, Group 4
# [6] = 0.5 mg/kg, 0.50 mg/kg iv, male, Group 4
structure (smiles),measurement,setting,value
C=C1C[C@H]2C=Nc3cc(OCCCCCOc4cc(N)c(C(=O)N5CC(=C)C[C@H]5C5OCCN5C(=O)OCC(C)(C)SSCCC(=O)NCCNC(=O)CCOCCOCCOCCOCCNC(=O)CCN5C(=O)CC(SC[C@H](NC(=O)[C@H](CC(=O)O)NC(=O)[C@H](CC(=O)O)NC(=O)[C@H](CCCNC(=N)N)NC(=O)[C@H](CC(=O)O)NC(=O)CC[C@H](NC(=O)c6ccc(NCc7cnc8nc(N)[nH]c(=O)c8n7)cc6)C(=O)O)C(=O)O)C5=O)cc4OC)c(OC)cc3C(=O)N2C1 (stereo partly drawn) [EC2629],plasma stability,"Plasma stability, rat",stable
same,plasma stability,"Plasma stability, human",stable
same,"fraction unbound at 30 min, 500 nM",[1],0.128
same,clearance,"[2]; both sexes, across 0.05-0.50 mg/kg iv dose groups, males and females, read-out: Clearance (Cl), range",1.51 to 2.9 mL/min/kg
same,Vd,"[2]; both sexes, across 0.05-0.50 mg/kg iv dose groups, males and females, read-out: volume of distribution (Vz), range",0.109 to 0.191 L/kg
same,AUC(0-inf),"[2]; 0.05 mg/kg iv, female, Group 1",287 ng·h/mL
same,AUC(0-t),"[2]; 0.05 mg/kg iv, female, Group 1",260 ng·h/mL
same,C0,"[2]; 0.05 mg/kg iv, female, Group 1",662 ng/mL
same,Cmax,"[2]; 0.05 mg/kg iv, female, Group 1",545 ng/mL
same,Tmax,"[2]; 0.05 mg/kg iv, female, Group 1",1.98 min
same,half-life,"[2]; 0.05 mg/kg iv, female, Group 1",37.6 min
same,clearance,"[2]; 0.05 mg/kg iv, female, Group 1, read-out: Cl (converted)",2.9 mL/min/kg
same,Vd,"[2]; 0.05 mg/kg iv, female, Group 1, read-out: Vz",0.157 L/kg
same,AUC(0-inf),"[2]; 0.05 mg/kg iv, male, Group 1",384 ng·h/mL
same,AUC(0-t),"[2]; 0.05 mg/kg iv, male, Group 1",305 ng·h/mL
same,C0,"[2]; 0.05 mg/kg iv, male, Group 1",669 ng/mL
same,Cmax,"[2]; 0.05 mg/kg iv, male, Group 1",595 ng/mL
same,Tmax,"[2]; 0.05 mg/kg iv, male, Group 1",1.98 min
same,half-life,"[2]; 0.05 mg/kg iv, male, Group 1",61.2 min
same,clearance,"[2]; 0.05 mg/kg iv, male, Group 1, read-out: Cl (converted)",2.17 mL/min/kg
same,Vd,"[2]; 0.05 mg/kg iv, male, Group 1, read-out: Vz",0.191 L/kg
same,AUC(0-inf),[2]; [3],633 ng·h/mL
same,AUC(0-t),[2]; [3],596 ng·h/mL
same,C0,[2]; [3],1570 ng/mL
same,Cmax,[2]; [3],1330 ng/mL
same,Tmax,[2]; [3],1.98 min
same,half-life,[2]; [3],31.5 min
same,clearance,"[2]; 0.1 mg/kg, 0.10 mg/kg iv, female, Group 2, read-out: Cl (converted)",2.63 mL/min/kg
same,Vd,"[2]; 0.1 mg/kg, 0.10 mg/kg iv, female, Group 2, read-out: Vz",0.12 L/kg
same,AUC(0-inf),[2]; [4],699 ng·h/mL
same,AUC(0-t),[2]; [4],617 ng·h/mL
same,C0,[2]; [4],1690 ng/mL
same,Cmax,[2]; [4],1390 ng/mL
same,Tmax,[2]; [4],1.98 min
same,half-life,[2]; [4],42.4 min
same,clearance,"[2]; 0.1 mg/kg, 0.10 mg/kg iv, male, Group 2, read-out: Cl (converted)",2.38 mL/min/kg
same,Vd,"[2]; 0.1 mg/kg, 0.10 mg/kg iv, male, Group 2, read-out: Vz",0.146 L/kg
same,AUC(0-inf),"[2]; 0.25 mg/kg iv, female, Group 3",1750 ng·h/mL
same,AUC(0-t),"[2]; 0.25 mg/kg iv, female, Group 3",1640 ng·h/mL
same,C0,"[2]; 0.25 mg/kg iv, female, Group 3",3740 ng/mL
same,Cmax,"[2]; 0.25 mg/kg iv, female, Group 3",3230 ng/mL
same,Tmax,"[2]; 0.25 mg/kg iv, female, Group 3",1.98 min
same,half-life,"[2]; 0.25 mg/kg iv, female, Group 3",31.8 min
same,clearance,"[2]; 0.25 mg/kg iv, female, Group 3, read-out: Cl (converted)",2.38 mL/min/kg
same,Vd,"[2]; 0.25 mg/kg iv, female, Group 3, read-out: Vz",0.109 L/kg
same,AUC(0-inf),"[2]; 0.25 mg/kg iv, male, Group 3",1930 ng·h/mL
same,AUC(0-t),"[2]; 0.25 mg/kg iv, male, Group 3",1670 ng·h/mL
same,C0,"[2]; 0.25 mg/kg iv, male, Group 3",4310 ng/mL
same,Cmax,"[2]; 0.25 mg/kg iv, male, Group 3",3580 ng/mL
same,Tmax,"[2]; 0.25 mg/kg iv, male, Group 3",1.98 min
same,half-life,"[2]; 0.25 mg/kg iv, male, Group 3",46.2 min
same,clearance,"[2]; 0.25 mg/kg iv, male, Group 3, read-out: Cl (converted)",2.15 mL/min/kg
same,Vd,"[2]; 0.25 mg/kg iv, male, Group 3, read-out: Vz",0.144 L/kg
same,AUC(0-inf),[2]; [5],3540 ng·h/mL
same,AUC(0-t),[2]; [5],3230 ng·h/mL
same,C0,[2]; [5],7060 ng/mL
same,Cmax,[2]; [5],6070 ng/mL
same,Tmax,[2]; [5],1.98 min
same,half-life,[2]; [5],36.7 min
same,clearance,"[2]; 0.5 mg/kg, 0.50 mg/kg iv, female, Group 4, read-out: Cl (converted)",2.35 mL/min/kg
same,Vd,"[2]; 0.5 mg/kg, 0.50 mg/kg iv, female, Group 4, read-out: Vz",0.125 L/kg
same,AUC(0-inf),[2]; [6],5510 ng·h/mL
same,AUC(0-t),[2]; [6],5450 ng·h/mL
same,C0,[2]; [6],8450 ng/mL
same,Cmax,[2]; [6],7080 ng/mL
same,Tmax,[2]; [6],1.98 min
same,half-life,[2]; [6],84 min
same,clearance,"[2]; 0.5 mg/kg, 0.50 mg/kg iv, male, Group 4, read-out: Cl (converted)",1.51 mL/min/kg
same,Vd,"[2]; 0.5 mg/kg, 0.50 mg/kg iv, male, Group 4, read-out: Vz",0.183 L/kg

# — paper PMC7391724 (Scientific Reports, 2020)
